Laboratory results taken from PMC4066765, “Insights into how Spt5 functions in transcription elongation and repressing transcription coupled DNA repair” (Nucleic Acids Research, 2014).

Target: T1, Rpb1, largest subunit of RNA polymerase II (S. cerevisiae, UniProt P04050 1-1733)
T1 construct: Rpb1, largest subunit of RNA polymerase II, S. cerevisiae; detected and immunoprecipitated with antibody 8WG16; Stands in the cell as part of the 12-subunit RNAP II; in the co-IP it is the bait (8WG16); also called RNAP II; core RNAP II (immunoprecipitated through Rpb1); source: endogenous, S. cerevisiae (BJ5465 derivatives); in living cells (cross-linking) and in solubilised chromatin fraction …
T1 sequence (P04050 whole entry): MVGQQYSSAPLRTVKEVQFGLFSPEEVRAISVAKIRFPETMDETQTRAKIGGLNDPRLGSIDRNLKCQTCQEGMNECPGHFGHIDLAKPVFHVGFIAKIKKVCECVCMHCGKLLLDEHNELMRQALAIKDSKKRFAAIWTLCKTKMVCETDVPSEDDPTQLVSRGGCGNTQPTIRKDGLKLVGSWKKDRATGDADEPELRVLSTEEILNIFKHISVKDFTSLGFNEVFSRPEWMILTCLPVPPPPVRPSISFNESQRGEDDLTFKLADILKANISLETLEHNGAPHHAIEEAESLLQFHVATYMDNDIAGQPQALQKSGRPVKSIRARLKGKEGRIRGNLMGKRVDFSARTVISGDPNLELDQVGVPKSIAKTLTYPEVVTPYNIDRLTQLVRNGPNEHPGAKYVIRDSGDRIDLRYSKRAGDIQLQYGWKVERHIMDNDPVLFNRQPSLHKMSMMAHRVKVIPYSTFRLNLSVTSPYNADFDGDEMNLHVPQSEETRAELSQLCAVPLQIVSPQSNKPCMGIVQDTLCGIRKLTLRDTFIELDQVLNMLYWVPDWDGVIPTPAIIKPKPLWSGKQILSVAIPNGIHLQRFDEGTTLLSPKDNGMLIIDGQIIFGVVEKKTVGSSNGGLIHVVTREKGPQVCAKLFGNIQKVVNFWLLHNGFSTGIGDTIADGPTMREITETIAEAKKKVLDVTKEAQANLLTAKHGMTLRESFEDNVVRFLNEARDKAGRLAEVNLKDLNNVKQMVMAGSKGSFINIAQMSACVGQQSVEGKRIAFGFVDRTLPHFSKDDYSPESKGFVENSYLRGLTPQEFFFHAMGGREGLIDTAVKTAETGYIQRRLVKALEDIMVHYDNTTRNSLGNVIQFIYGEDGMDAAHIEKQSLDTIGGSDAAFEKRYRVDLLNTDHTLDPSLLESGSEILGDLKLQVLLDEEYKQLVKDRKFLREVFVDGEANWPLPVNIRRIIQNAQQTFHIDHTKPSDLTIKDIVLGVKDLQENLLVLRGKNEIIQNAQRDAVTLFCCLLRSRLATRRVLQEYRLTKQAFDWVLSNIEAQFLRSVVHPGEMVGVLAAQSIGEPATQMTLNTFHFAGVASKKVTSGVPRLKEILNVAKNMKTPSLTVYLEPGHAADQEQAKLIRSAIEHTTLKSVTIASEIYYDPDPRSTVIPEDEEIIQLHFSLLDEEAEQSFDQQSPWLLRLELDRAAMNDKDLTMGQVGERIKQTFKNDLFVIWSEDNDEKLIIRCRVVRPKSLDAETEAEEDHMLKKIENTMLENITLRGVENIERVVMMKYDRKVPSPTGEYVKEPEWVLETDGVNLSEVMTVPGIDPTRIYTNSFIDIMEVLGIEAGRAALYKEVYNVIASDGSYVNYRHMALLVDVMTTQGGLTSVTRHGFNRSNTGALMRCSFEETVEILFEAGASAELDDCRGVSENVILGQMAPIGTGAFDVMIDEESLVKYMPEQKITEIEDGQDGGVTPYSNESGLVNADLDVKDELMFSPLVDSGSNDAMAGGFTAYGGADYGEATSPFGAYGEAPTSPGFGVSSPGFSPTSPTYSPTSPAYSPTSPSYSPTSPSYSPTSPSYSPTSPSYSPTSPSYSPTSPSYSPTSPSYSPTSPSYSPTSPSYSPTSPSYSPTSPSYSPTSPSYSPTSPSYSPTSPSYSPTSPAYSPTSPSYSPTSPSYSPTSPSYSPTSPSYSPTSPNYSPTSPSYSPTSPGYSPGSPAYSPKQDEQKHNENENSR
Assay: co-IP; chromatin fraction of log phase yeast cells solubilised by sonication in 50 mM HEPES pH 7.5, 140 mM NaCl, 1% Triton X-100, 0.1% sodium deoxycholate, 1 mM EDTA, 0.1% SDS; immunoprecipitated with 4 μg anti-Rpb1 8WG16; blots with 8WG16, 2Y14 and anti-Myc; cells expressing full-length, KOW4-deleted or KOW4-5-deleted Spt5
Settings: partners not purified

B1: Rpb4 (endogenous) (natural protein, S. cerevisiae, UniProt P20433 1-221, looked up)
chain: MNVSTSTFQTRRRRLKKVEEEENAATLQLGQEFQLKQINHQGEEEELIALNLSEARLVIKEALVERRRAFKRSQKKHKKKHLKHENANDETTAVEDEDDDLDEDDVNADDDDFMHSETREKELESIDVLLEQTTGGNNKDLKNTMQYLTNFSRFRDQETVGAVIQLLKSTGLHPFEVAQLGSLACDTADEAKTLIPSLNNKISDDELERILKELSNLETLY
notes: Rpb4, subunit of RNA polymerase II, S. cerevisiae; detected with antibody 2Y14; source: endogenous, S. cerevisiae (BJ5465 derivatives), in solubilised chromatin fraction
B1 was tested, and the “fold reduction of co-immunoprecipitated Rpb4 in cells with KOW4-5-deleted Spt5 against cells with full-length Spt5” value was greater than 2 fold.
